Test results taken from patent US20090041770A1.

Key:
[1] = target: human FcRn fused to a His-tag and glutathione S transferase (FcRn-His-GST), complex of FcRn heavy chain with beta-2-microglobulin (human) (UniProt P55899); test: AlphaScreen competition, […] NaCl
[2] = target: human FcRn fused to a His-tag and glutathione S transferase (FcRn-His-GST), complex of FcRn heavy chain with beta-2-microglobulin (human) (UniProt P55899); test: AlphaScreen competition, 25 mM NaCl
[3] = target: human FcRn fused to a His-tag and glutathione S transferase (FcRn-His-GST), complex of FcRn heavy chain with beta-2-microglobulin (human) (UniProt P55899); test: AlphaScreen competition

Substance | FcRn Binding ratio Variant / WT [3] | also measured
V308F AC10 - IgG1 (antibody) |  | FcRn Binding Fold-Increase [1]: 46.1
P257N/^281S (antibody) |  | Medan Fold Increase [2]: 5.99
^281S/V308F (antibody) |  | Medan Fold Increase [2]: 2.13
P257L AC10 - IgG1 (antibody) |  | FcRn Binding Fold-Increase [1]: 44
^281S/V308Y (antibody) |  | Medan Fold Increase [2]: 1.46
^281D (antibody) |  | Medan Fold Increase [2]: 0.89
^281T (antibody) |  | Medan Fold Increase [2]: 0.56
K320L (antibody) | 1.07 | 
E283Y (antibody) | 1.42 | 
T335S (antibody) | 1.42 | 
K288Y (antibody) | 1.1 | 
E233S (antibody) | 1.1 | 
A330L/I332E (antibody) | 1.5 | 
T223E (antibody) | 2.04 | 
S298E (antibody) | 1.54 | 
P238D (antibody) | 1.03 | 
E272H (antibody) | 1.45 | 

Substance | FcRn Binding ratio Variant / WT [3] | also measured
S239E (antibody) | 1.47 | 
G237I (antibody) | 1.01 | 
E333F (antibody) | 1.96 | 
F241W (antibody) | 1.7 | 
A330G (antibody) | 1.01 | 
Y278N (antibody) | 1.33 | 
S267K (antibody) | 1.7 | 
G236Q (antibody) | 1.46 | 
L235Q (antibody) | 1.67 | 
E233Y (antibody) | 1.86 | 
F241Y/F243Y/V262T/V264T (antibody) | 1.89 | 
T299F (antibody) | 1.86 | 
V264A (antibody) | 1.12 | 
I336E (antibody) | 8.11 | 
G237Y (antibody) | 1.92 | 
E318L (antibody) | 3.61 | 
S324D (antibody) | 1.27 | 

Continued, in another order:

FcRn Binding ratio Variant / WT [3] | Substance | also measured
24.8 | E269Y (antibody) | 
9.87 | A330H (antibody) | 
1.04 | K274G (antibody) | 
2.5 | V240M (antibody) | 
1.08 | K274T (antibody) | 
2.74 | E283K (antibody) | 
1.75 | G236F (antibody) | 
1.19 | N276R (antibody) | 
2.12 | N286E (antibody) | 
1.18 | D265P (antibody) | 
1.19 | L234R (antibody) | 
1.49 | P227E (antibody) | 
2.61 | V240T (antibody) | 
1.43 | N325M (antibody) | 
1.26 | K274N (antibody) | 
1.23 | D270I (antibody) | 
1.13 | E233M (antibody) | 
2.09 | E233G (antibody) | 

FcRn Binding ratio Variant / WT [3] | Substance | also measured
1.84 | G237D (antibody) | 
1.37 | E272D (antibody) | 
1.09 | T299W (antibody) | 
2.41 | P238F (antibody) | 
1.53 | P238G (antibody) | 
2.56 | P291H (antibody) | 
1.71 | T260D (antibody) | 
1.27 | Y278V (antibody) | 
2.71 | V263I (antibody) | 
1.07 | E258Y (antibody) | 
1.45 | P227K (antibody) | 
7.67 | V264D (antibody) | 
1.01 | P230E (antibody) | 
2.4 | H285D (antibody) | 
1.26 | L234I (antibody) | 
1.01 | A327D (antibody) | 
1.16 | L328H/I332E (antibody) | 
1.23 | Y296E (antibody) | 
